Results published in patent publication US20240327497A1.
“And” between values parts separate entries of the source, which are not always exact repeats. Equal entries are not always repeated.

molecular target: canine FcRn (FcRn large subunit with canine beta-2-microglobulin) (canine); assay: SPR pH 6.0, IgG coupled to CM5, FcRn 50-800 nM

| Binder | Kd | koff | kon |
| --- | --- | --- | --- |
| canine IgGA antibody with wild-type IgGA Fc and the variable domain of Gearing et al. 2013 (antibody, part only; not given: variable domains and light chain, not shown: another chain or arm of the molecule; small tags and cut ends) Fc: VPEPLGGPSVLIFPPKPKDILRITRTPEVTCVVLDLGREDPEVQISWFVDGKEVHTAKTQSREQQFNGTYRVVSVLPIEHQDWLTGKEFKCRVNHIDLPSPIERTISKARGRAHKPSVYVLPPSPKELSSSDTVSITCLIKDFYPPDIDVEWQSNGQQEPERKHRMTPPQLDEDGSYFLYSKLSVDKSRWQQGDPFTCAVMHETLQNHYTDLSLSHSPGK | 5970 nM | 0.187 s⁻¹ | 31400 M⁻¹ s⁻¹ |
| canine IgGA antibody, Fc variant A426H, variable domain of Gearing et al. 2013 (antibody, part only; not given: Variable domains, not shown: another chain or arm of the molecule; small tags and cut ends) Fc: VPEPLGGPSVLIFPPKPKDILRITRTPEVTCVVLDLGREDPEVQISWFVDGKEVHTAKTQSREQQFNGTYRVVSVLPIEHQDWLTGKEFKCRVNHIDLPSPIERTISKARGRAHKPSVYVLPPSPKELSSSDTVSITCLIKDFYPPDIDVEWQSNGQQEPERKHRMTPPQLDEDGSYFLYSKLSVDKSRWQQGDPFTCHVMHETLQNHYTDLSLSHSPGK | 1430 nM | 0.0591 s⁻¹ | 41400 M⁻¹ s⁻¹ |
| canine IgGA antibody, Fc variant A426Y, variable domain of Gearing et al. 2013 (antibody, part only; not given: Variable domains, not shown: another chain or arm of the molecule; small tags and cut ends) Fc: VPEPLGGPSVLIFPPKPKDILRITRTPEVTCVVLDLGREDPEVQISWFVDGKEVHTAKTQSREQQFNGTYRVVSVLPIEHQDWLTGKEFKCRVNHIDLPSPIERTISKARGRAHKPSVYVLPPSPKELSSSDTVSITCLIKDFYPPDIDVEWQSNGQQEPERKHRMTPPQLDEDGSYFLYSKLSVDKSRWQQGDPFTCYVMHETLQNHYTDLSLSHSPGK | 767 nM | 0.0375 s⁻¹ | 48900 M⁻¹ s⁻¹ |

molecular target: canine FcRn (FcRn large subunit with canine beta-2-microglobulin) (canine); assay: SPR pH 5.5, SASA-Fc captured on BSA, FcRn 100-800 nM

| Binder | Kd | koff | kon |
| --- | --- | --- | --- |
| canine IgGB Fc (CH2-CH3) N434H with N-terminal SASA tag (Fc fusion, part only; not given: SASA tag, not shown: another chain or arm of the molecule; small tags and cut ends) Fc: APEMLGGPSVFIFPPKPKDTLLIARTPEVTCVVVDLDPEDPEVQISWFVDGKQMQTAKTQPREEQFNGTYRVVSVLPIGHQDWLKGKQFTCKVNNKALPSPIERTISKARGQAHQPSVYVLPPSREELSKNTVSLTCLIKDFFPPDIDVEWQSNGQQEPESKYRTTPPQLDEDGSYFLYSKLSVDKSRWQRGDTFICAVMHEALHHHYTQESLSHSPGK | 247 nM | 0.102 s⁻¹ | 411000 M⁻¹ s⁻¹ |

molecular target: canine FcRn (FcRn large subunit with canine beta-2-microglobulin) (canine); assay: SPR pH 5.5, SASA-Fc captured on BSA, FcRn 400 nM

| Binder | Kd | WT KD Avg/Variant KD | kon | koff |
| --- | --- | --- | --- | --- |
| canine IgGB Fc (CH2-CH3) M428A with N-terminal SASA tag (Fc fusion, part only; not given: SASA tag, not shown: another chain or arm of the molecule; small tags and cut ends) Fc: APEMLGGPSVFIFPPKPKDTLLIARTPEVTCVVVDLDPEDPEVQISWFVDGKQMQTAKTQPREEQFNGTYRVVSVLPIGHQDWLKGKQFTCKVNNKALPSPIERTISKARGQAHQPSVYVLPPSREELSKNTVSLTCLIKDFFPPDIDVEWQSNGQQEPESKYRTTPPQLDEDGSYFLYSKLSVDKSRWQRGDTFICAVAHEALHNHYTQESLSHSPGK | 723 nM and 1670 nM | 0.78 and 0.34 | 234000 M⁻¹ s⁻¹ and 318000 M⁻¹ s⁻¹ |  |
| canine IgGB Fc (CH2-CH3) T250A with N-terminal SASA tag (Fc fusion, part only; not given: SASA tag, not shown: another chain or arm of the molecule; small tags and cut ends) Fc: APEMLGGPSVFIFPPKPKDALLIARTPEVTCVVVDLDPEDPEVQISWFVDGKQMQTAKTQPREEQFNGTYRVVSVLPIGHQDWLKGKQFTCKVNNKALPSPIERTISKARGQAHQPSVYVLPPSREELSKNTVSLTCLIKDFFPPDIDVEWQSNGQQEPESKYRTTPPQLDEDGSYFLYSKLSVDKSRWQRGDTFICAVMHEALHNHYTQESLSHSPGK | 335 nM and 328 nM | 1.69 and 1.72 |  |  |
| canine IgGB Fc (CH2-CH3) T286A with N-terminal SASA tag (Fc fusion, part only; not given: SASA tag, not shown: another chain or arm of the molecule; small tags and cut ends) Fc: APEMLGGPSVFIFPPKPKDTLLIARTPEVTCVVVDLDPEDPEVQISWFVDGKQMQAAKTQPREEQFNGTYRVVSVLPIGHQDWLKGKQFTCKVNNKALPSPIERTISKARGQAHQPSVYVLPPSREELSKNTVSLTCLIKDFFPPDIDVEWQSNGQQEPESKYRTTPPQLDEDGSYFLYSKLSVDKSRWQRGDTFICAVMHEALHNHYTQESLSHSPGK | 464 nM and 569 nM | 1.22 and 0.99 | 422000 M⁻¹ s⁻¹ and 533000 M⁻¹ s⁻¹ | 0.196 s⁻¹ and 0.304 s⁻¹ |
| canine IgGB Fc (CH2-CH3) T256A with N-terminal SASA tag (Fc fusion, part only; not given: SASA tag, not shown: another chain or arm of the molecule; small tags and cut ends) Fc: APEMLGGPSVFIFPPKPKDTLLIARAPEVTCVVVDLDPEDPEVQISWFVDGKQMQTAKTQPREEQFNGTYRVVSVLPIGHQDWLKGKQFTCKVNNKALPSPIERTISKARGQAHQPSVYVLPPSREELSKNTVSLTCLIKDFFPPDIDVEWQSNGQQEPESKYRTTPPQLDEDGSYFLYSKLSVDKSRWQRGDTFICAVMHEALHNHYTQESLSHSPGK | 447 nM and 298 nM | 1.27 and 1.9 |  | 0.166 s⁻¹ |
| canine IgGB Fc (CH2-CH3) G309A with N-terminal SASA tag (Fc fusion, part only; not given: SASA tag, not shown: another chain or arm of the molecule; small tags and cut ends) Fc: APEMLGGPSVFIFPPKPKDTLLIARTPEVTCVVVDLDPEDPEVQISWFVDGKQMQTAKTQPREEQFNGTYRVVSVLPIAHQDWLKGKQFTCKVNNKALPSPIERTISKARGQAHQPSVYVLPPSREELSKNTVSLTCLIKDFFPPDIDVEWQSNGQQEPESKYRTTPPQLDEDGSYFLYSKLSVDKSRWQRGDTFICAVMHEALHNHYTQESLSHSPGK | 245 nM and 294 nM | 2.31 and 1.92 |  |  |
| canine IgGB Fc (CH2-CH3) Q285A with N-terminal SASA tag (Fc fusion, part only; not given: SASA tag, not shown: another chain or arm of the molecule; small tags and cut ends) Fc: APEMLGGPSVFIFPPKPKDTLLIARTPEVTCVVVDLDPEDPEVQISWFVDGKQMATAKTQPREEQFNGTYRVVSVLPIGHQDWLKGKQFTCKVNNKALPSPIERTISKARGQAHQPSVYVLPPSREELSKNTVSLTCLIKDFFPPDIDVEWQSNGQQEPESKYRTTPPQLDEDGSYFLYSKLSVDKSRWQRGDTFICAVMHEALHNHYTQESLSHSPGK | 341 nM and 257 nM | 1.66 and 2.2 |  | 0.112 s⁻¹ |
| canine IgGB Fc (CH2-CH3) Y436A with N-terminal SASA tag (Fc fusion, part only; not given: SASA tag, not shown: another chain or arm of the molecule; small tags and cut ends) Fc: APEMLGGPSVFIFPPKPKDTLLIARTPEVTCVVVDLDPEDPEVQISWFVDGKQMQTAKTQPREEQFNGTYRVVSVLPIGHQDWLKGKQFTCKVNNKALPSPIERTISKARGQAHQPSVYVLPPSREELSKNTVSLTCLIKDFFPPDIDVEWQSNGQQEPESKYRTTPPQLDEDGSYFLYSKLSVDKSRWQRGDTFICAVMHEALHNHATQESLSHSPGK | 393 nM and 876 nM | 1.44 and 0.65 |  | 0.407 s⁻¹ and 0.213 s⁻¹ |
| canine IgGB Fc (CH2-CH3) D378A with N-terminal SASA tag (Fc fusion, part only; not given: SASA tag, not shown: another chain or arm of the molecule; small tags and cut ends) Fc: APEMLGGPSVFIFPPKPKDTLLIARTPEVTCVVVDLDPEDPEVQISWFVDGKQMQTAKTQPREEQFNGTYRVVSVLPIGHQDWLKGKQFTCKVNNKALPSPIERTISKARGQAHQPSVYVLPPSREELSKNTVSLTCLIKDFFPPDIAVEWQSNGQQEPESKYRTTPPQLDEDGSYFLYSKLSVDKSRWQRGDTFICAVMHEALHNHYTQESLSHSPGK | 673 nM and 592 nM | 0.84 and 0.96 | 272000 M⁻¹ s⁻¹ and 306000 M⁻¹ s⁻¹ | 0.183 s⁻¹ and 0.181 s⁻¹ |
| canine IgGB Fc (CH2-CH3) I308A with N-terminal SASA tag (Fc fusion, part only; not given: SASA tag, not shown: another chain or arm of the molecule; small tags and cut ends) Fc: APEMLGGPSVFIFPPKPKDTLLIARTPEVTCVVVDLDPEDPEVQISWFVDGKQMQTAKTQPREEQFNGTYRVVSVLPAGHQDWLKGKQFTCKVNNKALPSPIERTISKARGQAHQPSVYVLPPSREELSKNTVSLTCLIKDFFPPDIDVEWQSNGQQEPESKYRTTPPQLDEDGSYFLYSKLSVDKSRWQRGDTFICAVMHEALHNHYTQESLSHSPGK | 472 nM and 563 nM | 1.2 and 1 | 357000 M⁻¹ s⁻¹ and 345000 M⁻¹ s⁻¹ | 0.169 s⁻¹ and 0.194 s⁻¹ |
| canine IgGB Fc (CH2-CH3) A254S with N-terminal SASA tag (Fc fusion, part only; not given: SASA tag, not shown: another chain or arm of the molecule; small tags and cut ends) Fc: APEMLGGPSVFIFPPKPKDTLLISRTPEVTCVVVDLDPEDPEVQISWFVDGKQMQTAKTQPREEQFNGTYRVVSVLPIGHQDWLKGKQFTCKVNNKALPSPIERTISKARGQAHQPSVYVLPPSREELSKNTVSLTCLIKDFFPPDIDVEWQSNGQQEPESKYRTTPPQLDEDGSYFLYSKLSVDKSRWQRGDTFICAVMHEALHNHYTQESLSHSPGK | 340 nM and 317 nM | 1.66 and 1.78 |  |  |
| canine IgGB Fc (CH2-CH3) P307A with N-terminal SASA tag (Fc fusion, part only; not given: SASA tag, not shown: another chain or arm of the molecule; small tags and cut ends) Fc: APEMLGGPSVFIFPPKPKDTLLIARTPEVTCVVVDLDPEDPEVQISWFVDGKQMQTAKTQPREEQFNGTYRVVSVLAIGHQDWLKGKQFTCKVNNKALPSPIERTISKARGQAHQPSVYVLPPSREELSKNTVSLTCLIKDFFPPDIDVEWQSNGQQEPESKYRTTPPQLDEDGSYFLYSKLSVDKSRWQRGDTFICAVMHEALHNHYTQESLSHSPGK | 325 nM and 338 nM | 1.74 and 1.67 |  | 1.23 s⁻¹ |
| canine IgGB Fc (CH2-CH3) L252A with N-terminal SASA tag (Fc fusion, part only; not given: SASA tag, not shown: another chain or arm of the molecule; small tags and cut ends) Fc: APEMLGGPSVFIFPPKPKDTLAIARTPEVTCVVVDLDPEDPEVQISWFVDGKQMQTAKTQPREEQFNGTYRVVSVLPIGHQDWLKGKQFTCKVNNKALPSPIERTISKARGQAHQPSVYVLPPSREELSKNTVSLTCLIKDFFPPDIDVEWQSNGQQEPESKYRTTPPQLDEDGSYFLYSKLSVDKSRWQRGDTFICAVMHEALHNHYTQESLSHSPGK | 292 nM and 240 nM | 1.94 and 2.36 |  |  |
| canine IgGB Fc (CH2-CH3) H433A with N-terminal SASA tag (Fc fusion, part only; not given: SASA tag, not shown: another chain or arm of the molecule; small tags and cut ends) Fc: APEMLGGPSVFIFPPKPKDTLLIARTPEVTCVVVDLDPEDPEVQISWFVDGKQMQTAKTQPREEQFNGTYRVVSVLPIGHQDWLKGKQFTCKVNNKALPSPIERTISKARGQAHQPSVYVLPPSREELSKNTVSLTCLIKDFFPPDIDVEWQSNGQQEPESKYRTTPPQLDEDGSYFLYSKLSVDKSRWQRGDTFICAVMHEALANHYTQESLSHSPGK | 266 nM and 359 nM | 2.13 and 1.58 |  | 0.229 s⁻¹ and 0.0997 s⁻¹ |
| canine IgGB Fc (CH2-CH3) K315A with N-terminal SASA tag (Fc fusion, part only; not given: SASA tag, not shown: another chain or arm of the molecule; small tags and cut ends) Fc: APEMLGGPSVFIFPPKPKDTLLIARTPEVTCVVVDLDPEDPEVQISWFVDGKQMQTAKTQPREEQFNGTYRVVSVLPIGHQDWLAGKQFTCKVNNKALPSPIERTISKARGQAHQPSVYVLPPSREELSKNTVSLTCLIKDFFPPDIDVEWQSNGQQEPESKYRTTPPQLDEDGSYFLYSKLSVDKSRWQRGDTFICAVMHEALHNHYTQESLSHSPGK | 422 nM and 548 nM | 1.34 and 1.03 |  | 0.134 s⁻¹ |
| canine IgGB Fc (CH2-CH3) Q311A with N-terminal SASA tag (Fc fusion, part only; not given: SASA tag, not shown: another chain or arm of the molecule; small tags and cut ends) Fc: APEMLGGPSVFIFPPKPKDTLLIARTPEVTCVVVDLDPEDPEVQISWFVDGKQMQTAKTQPREEQFNGTYRVVSVLPIGHADWLKGKQFTCKVNNKALPSPIERTISKARGQAHQPSVYVLPPSREELSKNTVSLTCLIKDFFPPDIDVEWQSNGQQEPESKYRTTPPQLDEDGSYFLYSKLSVDKSRWQRGDTFICAVMHEALHNHYTQESLSHSPGK | 368 nM and 370 nM | 1.54 and 1.53 | 2.43e+06 M⁻¹ s⁻¹ and 1.34e+06 M⁻¹ s⁻¹ | 0.894 s⁻¹ and 0.496 s⁻¹ |
